This is an account of results in US20240287172A1 (SCIRHOM, published 2024).

The chains are these.
T1: human iRhom2, endogenously expressed (human, UniProt Q6PJF5 1-856)
T1 sequence: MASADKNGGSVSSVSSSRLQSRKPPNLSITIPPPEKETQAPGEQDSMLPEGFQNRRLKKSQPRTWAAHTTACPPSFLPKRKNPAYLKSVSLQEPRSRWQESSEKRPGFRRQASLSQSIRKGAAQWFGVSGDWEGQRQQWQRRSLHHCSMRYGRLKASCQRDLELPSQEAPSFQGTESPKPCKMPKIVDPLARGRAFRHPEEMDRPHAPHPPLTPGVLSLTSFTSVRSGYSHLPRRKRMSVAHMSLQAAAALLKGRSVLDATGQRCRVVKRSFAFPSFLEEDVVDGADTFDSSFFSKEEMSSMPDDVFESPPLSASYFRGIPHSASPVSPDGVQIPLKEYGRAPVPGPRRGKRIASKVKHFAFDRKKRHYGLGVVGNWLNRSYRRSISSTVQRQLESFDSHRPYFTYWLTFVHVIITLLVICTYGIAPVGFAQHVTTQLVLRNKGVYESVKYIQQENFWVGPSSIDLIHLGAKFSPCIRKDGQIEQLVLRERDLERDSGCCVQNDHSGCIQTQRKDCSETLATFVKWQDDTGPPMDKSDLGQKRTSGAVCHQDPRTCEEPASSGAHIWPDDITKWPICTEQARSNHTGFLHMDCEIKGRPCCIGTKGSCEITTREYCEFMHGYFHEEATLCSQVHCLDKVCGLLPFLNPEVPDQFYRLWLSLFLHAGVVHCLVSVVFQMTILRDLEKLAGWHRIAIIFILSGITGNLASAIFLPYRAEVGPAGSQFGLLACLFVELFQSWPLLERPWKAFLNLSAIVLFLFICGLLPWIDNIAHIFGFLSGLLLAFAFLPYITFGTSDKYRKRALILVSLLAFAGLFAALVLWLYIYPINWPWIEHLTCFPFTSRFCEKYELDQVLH

T2: hiR2-FL-C508A-T7 (human, UniProt Q6PJF5 1-856)
T2 construct: reduced surface expression reported
T2 sequence: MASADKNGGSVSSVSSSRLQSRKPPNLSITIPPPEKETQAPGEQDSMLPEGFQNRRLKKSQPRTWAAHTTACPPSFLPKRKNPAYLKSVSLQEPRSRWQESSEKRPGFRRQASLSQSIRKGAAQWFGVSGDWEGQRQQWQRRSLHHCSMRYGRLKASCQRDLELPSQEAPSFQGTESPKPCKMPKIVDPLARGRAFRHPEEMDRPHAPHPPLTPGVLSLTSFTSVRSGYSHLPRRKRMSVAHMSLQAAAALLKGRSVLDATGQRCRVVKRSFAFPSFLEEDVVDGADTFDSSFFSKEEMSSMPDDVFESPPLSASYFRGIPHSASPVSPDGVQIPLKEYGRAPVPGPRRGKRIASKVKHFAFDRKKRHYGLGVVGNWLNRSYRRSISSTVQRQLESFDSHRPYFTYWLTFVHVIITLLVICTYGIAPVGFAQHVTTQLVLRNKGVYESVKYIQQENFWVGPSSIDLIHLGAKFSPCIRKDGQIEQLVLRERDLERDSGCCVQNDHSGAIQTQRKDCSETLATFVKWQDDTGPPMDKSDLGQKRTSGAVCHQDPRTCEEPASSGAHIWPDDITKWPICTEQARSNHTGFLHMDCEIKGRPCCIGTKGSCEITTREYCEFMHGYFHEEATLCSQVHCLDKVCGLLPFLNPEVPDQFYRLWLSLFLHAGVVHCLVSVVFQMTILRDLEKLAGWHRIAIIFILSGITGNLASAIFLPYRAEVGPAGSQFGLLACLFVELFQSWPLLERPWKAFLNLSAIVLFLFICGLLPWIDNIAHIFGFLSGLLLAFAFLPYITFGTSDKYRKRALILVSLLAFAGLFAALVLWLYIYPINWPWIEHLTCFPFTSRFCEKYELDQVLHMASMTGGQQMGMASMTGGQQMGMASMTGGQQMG

B1: antibody 5 (antibody, V domains shown)
VH: QVTLKESGPGILQPSQTLSLTCSFSGFSLSTFGMGVGWIRQPSGKGLEWLAHIWWDDEKYYNSALKSRLTISKATSKNQAFLKIANVDTADTATYYCARISNYGSNYWYFNVWGTGTTVTVSS
VL: QVVLTQSPALMSASPGEKVTMTCSAGSSVSCMYWYQQKPGSSPRVLIYDTSNLASGVPARFTGSGSGTSYSLTISRMEAEDAASYYCQQWNSYPLTFGAGTKLELK
notes: mouse IgG, kappa light chain; also called clone #5; purified antibody 5
B2: antibody 44 (antibody, V domains shown)
VH: B1 VH with G44E, E58D, S63P, A74D, A80I, A85T, D91E, A98S, S101G, N111D
VL: QIVLTQSPAVMSASPGEKVTMTCTASSSVYYMYWYQQTPGSSPRLLIYDTSNLASGVPVRFSGSGSGTSYSLTISRMEAEDAATYYCQQWNTYPLTFGAGTKLELK
notes: mouse IgG, kappa light chain; also called clone #44; purified antibody 44
B3: antibody 42 (antibody, V domains shown)
VH: B1 VH with F24L, M34R, S63P, A74D, A80V, K83R, S101Q, N111D
VL: LIVLTQSPAIMSASPGEKVTMTCGATSRISYMFWYQQKPGSSPRVLIYDTSNLASGVPVRFSGSGSGTSYSLTISRVEAEDVATYYCQQWNSYPLTFGAGTKLELK
notes: mouse IgG, kappa light chain; also called clone #42; purified antibody 42
B4: antibody 43 (antibody, V domains shown)
VH: B1 VH with T3A, P42S, H52N, E58D, S63P, A74D, T75A, S101G, N111D
VL: B3 VL with L1Q, K18R, G24S, T26N, F33Y, V45L, V77M, V82A, Y86N, N91S
notes: mouse IgG, kappa light chain; also called clone #43; purified antibody 43
B5: antibody 22 (antibody, V domains shown)
VH: B1 VH with A80V
VL: B1 VL with C31Y, S84T
notes: mouse IgG, kappa light chain; also called clone #22; purified antibody 22
B6: antibody 34 (antibody, V domains shown)
VH: QVTLKESGPGILQPSQTLSLTCSFSGFSLSTFSLGVGWIRQSSGKGLEWLAHIWWDDEKYYNPALKSRLTISKDTSKNQVFLKIANVDAADTATYYCARAYYSKSYYALDYWGQGTSVTVSS
VL: DIQMTQSPSSLSASLGERVSLTCRASQEISGYLSWLQQKPDGTIKRLIYAASTLDSGVPKRFSGSRSGSDYSLAISSLESEDFADYYCLQYANFPFTFGSGTKLEIK
notes: mouse IgG, kappa light chain; also called clone #34; purified antibody 34

Substitutions are numbered along the chain they refer to.

For one assay, the target named is T1, human iRhom2, endogenously expressed. Description: cell-based or functional assay.
In the case of B1, the “LPS-induced TNFα release from THP-1 cells, percent inhibition, 10 µg/ml, hybridoma-purified” value was 69%; the “LPS-induced TNFα release from THP-1 cells, percent inhibition, recombinant antibody” value stood at 70.5%; the “PMA-induced IL-6R release from THP-1 cells, percent inhibition, 1 µg/ml” value turned out to be 64.1%; the “PMA-induced IL-6R release from U-937 cells, percent inhibition, 1 µg/ml” value was found to be 67%. The “PMA-induced TNFα release from U-937 cells, percent inhibition, 1 µg/ml” value was determined as 63.6%.
Take B2: the “LPS-induced TNFα release from THP-1 cells, percent inhibition, 10 µg/ml, hybridoma-purified” value was 32.2%; the “LPS-induced TNFα release from THP-1 cells, percent inhibition, recombinant antibody” value is 73.2%; the “PMA-induced HB-EGF release from THP-1 cells, percent inhibition, 3 µg/ml” value amounted to 67.5%; the “PMA-induced HB-EGF release from U-937 cells, percent inhibition” value is 100%. Moreover, the “PMA-induced IL-6R release from THP-1 cells, percent inhibition, 1 µg/ml” value stood at 73%; the “PMA-induced IL-6R release from U-937 cells, percent inhibition, 1 µg/ml” value came out at 71.8%; the “PMA-induced IL-6R release from U-937 cells, percent inhibition, 3 µg/ml” value is 82%; the “PMA-induced TGFα release from PC3 cells, percent inhibition, 1 µg/ml” value worked out at 14.1%. The “PMA-induced TNFα release from U-937 cells, percent inhibition, 1 µg/ml” value amounted to 76.5% and the “PMA-induced TNFα release from U-937 cells, percent inhibition, 3 µg/ml” value was 86.3%.
Consider B3, for which the “LPS-induced TNFα release from PBMCs of healthy donors, percent inhibition, 1 µg/ml” value is 77%; the “LPS-induced TNFα release from THP-1 cells, percent inhibition, 10 µg/ml, hybridoma-purified” value turned out to be 76.7%; the “LPS-induced TNFα release from THP-1 cells, percent inhibition, recombinant antibody” value worked out at 75.9%; the “LPS-induced TNFα release from human macrophages of healthy donors, percent inhibition, 10 µg/ml” value was 93.2%. Besides, the “PMA-induced HB-EGF release from PBMCs of healthy donors, percent inhibition, 1 µg/ml” value worked out at 77.6%; the “PMA-induced HB-EGF release from THP-1 cells, percent inhibition, 3 µg/ml” value was 76.6%; the “PMA-induced HB-EGF release from U-937 cells, percent inhibition” value was determined as 104%; the “PMA-induced IL-6R release from PBMCs of healthy donors, percent inhibition, 1 µg/ml” value came out at 85%. The “PMA-induced IL-6R release from THP-1 cells, percent inhibition, 1 µg/ml” value was found to be 85.9%; the “PMA-induced IL-6R release from U-937 cells, percent inhibition, 1 µg/ml” value worked out at 80.8%; the “PMA-induced IL-6R release from U-937 cells, percent inhibition, 3 µg/ml” value worked out at 84.4%; the “PMA-induced TGFα release from PC3 cells, percent inhibition, 1 µg/ml” value was determined as 14.3%. For the same molecule, the “PMA-induced TNFα release from U-937 cells, percent inhibition, 1 µg/ml” value turned out to be 94.5% and the “PMA-induced TNFα release from U-937 cells, percent inhibition, 3 µg/ml” value turned out to be 94.1%.
Take B4: the “LPS-induced TNFα release from THP-1 cells, percent inhibition, 10 µg/ml, hybridoma-purified” value stood at 74.8%; the “LPS-induced TNFα release from THP-1 cells, percent inhibition, recombinant antibody” value worked out at 78.5%; the “PMA-induced IL-6R release from THP-1 cells, percent inhibition, 1 µg/ml” value was 72.9%; the “PMA-induced IL-6R release from U-937 cells, percent inhibition, 1 µg/ml” value came to 76.1%. Besides, the “PMA-induced TGFα release from PC3 cells, percent inhibition, 1 µg/ml” value was found to be 12.4% and the “PMA-induced TNFα release from U-937 cells, percent inhibition, 1 µg/ml” value came to 78.3%.
Consider B5, for which the “LPS-induced TNFα release from PBMCs of healthy donors, percent inhibition, 1 µg/ml” value was 72.8%; the “LPS-induced TNFα release from THP-1 cells, percent inhibition, 10 µg/ml, hybridoma-purified” value was found to be 78.8%; the “LPS-induced TNFα release from THP-1 cells, percent inhibition, recombinant antibody” value is 78.4%; the “LPS-induced TNFα release from human macrophages of healthy donors, percent inhibition, 10 µg/ml” value is 78.8%. The “PMA-induced HB-EGF release from PBMCs of healthy donors, percent inhibition, 1 µg/ml” value turned out to be 56.5%; the “PMA-induced HB-EGF release from THP-1 cells, percent inhibition, 3 µg/ml” value was 77.7%; the “PMA-induced HB-EGF release from U-937 cells, percent inhibition” value was determined as 101%; the “PMA-induced IL-6R release from PBMCs of healthy donors, percent inhibition, 1 µg/ml” value was 79.3%. The “PMA-induced IL-6R release from THP-1 cells, percent inhibition, 1 µg/ml” value came out at 67.4%; the “PMA-induced IL-6R release from U-937 cells, percent inhibition, 1 µg/ml” value came to 74.5%; the “PMA-induced IL-6R release from U-937 cells, percent inhibition, 3 µg/ml” value was determined as 79%; the “PMA-induced TGFα release from PC3 cells, percent inhibition, 1 µg/ml” value turned out to be 12.7%. The “PMA-induced TNFα release from U-937 cells, percent inhibition, 1 µg/ml” value amounted to 86.1% and the “PMA-induced TNFα release from U-937 cells, percent inhibition, 3 µg/ml” value is 93.1%.
With B6, the “LPS-induced TNFα release from THP-1 cells, percent inhibition, 10 µg/ml, hybridoma-purified” value worked out at 27.3%; the “LPS-induced TNFα release from THP-1 cells, percent inhibition, recombinant antibody” value worked out at 73.8%; the “PMA-induced HB-EGF release from THP-1 cells, percent inhibition, 3 µg/ml” value turned out to be 64.2%; the “PMA-induced HB-EGF release from U-937 cells, percent inhibition” value worked out at 98.2%. The “PMA-induced IL-6R release from THP-1 cells, percent inhibition, 1 µg/ml” value came out at 71.1%; the “PMA-induced IL-6R release from U-937 cells, percent inhibition, 1 µg/ml” value stood at 69.3%; the “PMA-induced IL-6R release from U-937 cells, percent inhibition, 3 µg/ml” value is 74.6%; the “PMA-induced TNFα release from U-937 cells, percent inhibition, 1 µg/ml” value amounted to 68.6%. Moreover, the “PMA-induced TNFα release from U-937 cells, percent inhibition, 3 µg/ml” value worked out at 79.9%.

The next assay addresses T2, hiR2-FL-C508A-T7. Kind of assay: FACS on MEF-DKO cells expressing the variant, 3 µg/ml antibody. How it is done:
To pellet cells and remove supernatants, the plates were centrifuged at 1,500 rpm and 4° C. for 3 minutes. For primary staining, cells were resuspended in 100 μl per well of either FACS buffer alone (controls) or the purified antibodies 3, 5, 16, 22, 34, 42, 43, 44, 48, and 50 of the invention at 3 μg/ml in FACS buffer and incubated on ice for 1 hour. Afterwards, plates were centrifuged at 1,500 rpm and 4° C. for 3 minutes and washed twice with 200 μl per well of FACS buffer. For secondary staining, cells were spun down and resuspended in 100 μl per well of PE-conjugated goat anti-mouse IgG F(ab′)2 detection fragment (Dianova, Germany) diluted 1:100 in FACS buffer. Protected from light, the cell suspensions were incubated on ice for 1 hour. Plates were then centrifuged at 1,500 rpm and 4° C. for 3 minutes and washed three times with 200 μl per well of FACS buffer. Finally, cells were resuspended in 150 μl per well of FACS buffer and analyzed using a BD Accuri™ C6 Plus flow cytometer (Becton Dickinson, Germany).
Take B1: the “loss of binding vs wild type” value is ≥ 30%.
B2: the “loss of binding vs wild type” value was ≥ 30%.
For B3, the “loss of binding vs wild type” value is ≥ 30%.
Turning to B4, the “loss of binding vs wild type” value was ≥ 30%.
The same measure, in the same setting: next, B5: ≥ 30%.
Still for that read-out and setting: under B6 stands ≥ 30%.
